Experimental data published in the DeepSol protein solubility set.

Experiment: soluble on expression in E. coli; label from the status in PepcDB or PDB records

| Sequence | soluble on expression in E. coli |
| --- | --- |
| MGSRNIVRAVLEEKKTEAITEVDEKGITCVMKFGGSSVASAERMKEVADLILTFPEESPVIVLSAMGKTTNNLLLAGEKAVSCGVSNASEIEELSIIKELHIRTVKELNIDPSVILTYLEELEQLLKGIAMMKELTLRTRDYLVSFGECLSTRIFAAYLNTIGVKARQYDAFEIGFITTDDFTNGDILEATYPAVAKRLYDDWMHDPAVPIVTGFLGKGWKTGAVTTLGRGGSDLTATTIGKALGLKEIQVWKDVDGVLTCDPTIYKRATPVPYLTFDEAAELAYFGAQVLHPQSMRPAREGEIPVRVKNSYNPKAPGTIITKTRDMTKSILTSIVLKRNVTMLDIASTRMLGQVGFLAKVFSIFEELGISVDVVATSEVSISLTLDPSKLWSRELIQQELDHVVEELEKIAVVNLLKGRAIISLIGNVQHSSLILERAFHVLYTKGVNVQMISQGASKVNISFIVNEAEAEGCVQALHKSFFESGDLSELLIQPRLGNGSPVRTLQVEN | soluble |
| MGSDKIHHHHHHMQQSQTIYLMGTVIDVFVDHEESEKILEEVHQRLITYEQRFSANDSTSELMAVNQQAGQKPVSVHPELYQLIALGKKHSCDPASHLNVTIGPLVQTWRIGFKDARVPSEEEIKACLKKINPEKIHLNPLKQTVFLEEEGMKLDLGALAKGYIADLLIAYLKEVHVTSALINLGGNIVTLGPSTHQNKKWRIGIRNPQESRETISLLVEVANQSVVTSGIYERSLTEAGRVYHHLLDPTTGYPLETEMASLTIISDASVDGEIWTTRLFGYPIPEALEILNQLDGIEGVIITQDQQILYSSGLADTLHIIHS | not soluble |
| GPGSMLYRTAVPVPADALVQRNLEFTRTAWKAGLRPDQRDANQLRVVEIDFPLLSRDVVQVKCGNTVATATISCDLVEPSPYRPKHGFFEVHARQLLNERDPLDQSKEIKRISMYLTRLLSGSVLETESLCVIPGRRVWSIDAEVIIVNNDGNAQDVAQWAVMTALQHVRRPELTIRGEDVIVHPPHERDPVPLPLHHIPLSFTFAVCANPQEVQLAVRAATLRSAHAPRAGASSGANADEGDGEAEELGWSSDALQVVVDPSLEEATAAACTVSVALNGEGHVCSLEKADGCYVSIAYLEQCMEIATKLTQALLSQMKESMEAHNAKRTEAVRSQFLWAQQRHGIQAIATPGDEGEHARKSAKTEK | soluble |
| MNKTELIKAIAQDTGLTQVSVSKMLASFEKIITETVAKGDKVQLTGFLNIKPVARQARKGFNPQTQEALEIAPSVGVSVKPGESLKKAAEGLKYEDFAK | soluble |
| MIGKNIKSLRKTHDLTQLEFARIVGISRNSLSRYENGTSSVSTELIDIICQKFNVSYVDIVGEDKMLNPVEDYELTLKIEIVKERGANLLSRLYRYQDSQGISIDDESNPWILMSDDLSDLIHTNIYLVETFDEIERYSGYLDGIERMLEISEKRMVA | soluble |
| LNLSGLSLSCEYQPFVCPHTKHIHGYEALARFYLGQGQAIAPNLVFEQLHENSNALAAVEFQAKTFQLKHAPARQSLFVNVDPHAANGVHTQKLLDLLSSHPQLTVEIIENTCISDAELANQLFHQFKTANLNVALDDIGAPHSMLSVDLMMNVDYLKFDRHWLNLVAEPHGIALLSALIEFGKRTGKQCILEGIETEAQLQLARELNVDLVQGFLFKP | not soluble |
| MSLEWCKNRLEITGRSVFVDIMQQWVTGEEVPLYRHAIQQSIRLFLAGCAGILKPVKCMEYPPFPRLVSHGTGSAVASNLAFQHWLDLLLKDAVLDGDTIRQIDRIYLQSGIASVKWETIPEGARQIITQLMARQYPDWFGVASWSSHINGADCWTKLGVMQEHACNCDMLMIIPTRLAIELNGNSQLLTGVSTTHDLYSHLYGMAWPSGQNIIWQRDRINSLRLDFDSPSYPPSAELMGELSAVFDCEIRHWYQEPVNGIRGYDCYDRGDHVDSGEYGAGPFLPPLKVEEVTVNGQEEAAEGHHHHHH | soluble |
| MMKDKHGAMNAERRGMGEQRLAERMAELERRLKEVEAENIVLKELAYQSAKRYEQLKQLAKENDELRRQLLQSPWSEKTDKMDEDERPDSWFFRTLRQENAIMPHPERNEK | not soluble |
| MEGIIVRRVIPSDNSCLFNAIGYVMDKDKNKAPELRQVIAAAVASNKEKYNEAFLGKLNEEYCAWILNPDKWGGAIELSILADYYGREIAAYDIQTSRCDLYGQTRNYDERVMLIYDGLHYDALALSPFEGAEEDFDMTIYPVGKDRSIGSIEGLALNLVKDQQRKRSYTDTANFTLRCGVCQIGVIGQKEAVEHAQATGHVNFQEYK | soluble |
